Test results published in PMC6499725.

Target: propionyl-CoA synthase (PCS) from Erythrobacter sp. NAP1 (Erythrobacter sp. NAP1)
Experiment: crystal structure

**Q.** With “propionyl-CoA synthase (PCS) from Erythrobacter sp. NAP1 (enzyme)” as the substance, how does the stoichiometry N read?
**A.** 2
